According to the supplement of paper PMC11316812:
± gives the standard deviation of the averaged measurements.

What was measured:
MCF7 = experiment: percentage of EdU-negative (G0-arrested) nuclei per well, 72 h; higher = more G0 arrest; conditions: reference: sequence is the full UniProt precursor, the tested protein was the secreted form or ectodomain
hTERT-HMEC = experiment: as above; conditions: reference: sequence is the full UniProt precursor, the tested protein was the secreted form or ectodomain
[1] = protein concentration 0.0289325 µM
[2] = protein concentration 0.289325 µM
[3] = protein concentration 0.03125 µM
[4] = protein concentration 0.3125 µM
[5] = protein concentration 0.02075 µM
[6] = protein concentration 0.2075 µM
[7] = protein concentration 0.0214725 µM
[8] = protein concentration 0.214725 µM
[9] = protein concentration 0.0193425 µM
[10] = protein concentration 0.193425 µM
[11] = protein concentration 0.0286875 µM
[12] = protein concentration 0.286875 µM
[13] = protein concentration 0.03054 µM
[14] = protein concentration 0.3054 µM
[15] = protein concentration 0.0357143 µM
[16] = protein concentration 0.357143 µM
[17] = protein concentration 0.0225 µM
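Further: secreted proteins added to cultured cells, EdU pulse at the end, nuclei found by Hoechst imaging, EdU status from nuclear versus surrounding ring intensity ratio, PBS as neutral control.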

MGPLPAPSCTQRITWKGLLLTASLLNFWNPPTTAEVTIEAQPPKVSEGKDVLLLVHNLPQNLPGYFWYKGEMTDLYHYIISYIVDGKIIIYGPAYSGRETVYSNASLLIQNVTRKDAGTYTLHIIKRGDETREEIRHFTFTLYLETPKPYISSSNLNPREAMEAVRLICDPETLDASYLWWMNGQSLPVTHRLQLSKTNRTLYLFGVTKYIAGPYECEIRNPVSASRSDPVTLNLLPKLPIPYITINNLNPRENKDVLAFTCEPKSENYTYIWWLNGQSLPVSPGVKRPIENRILILPSVTRNETGPYQCEIRDRYGGLRSNPVILNVLYGPDLPRIYPSFTYYRSGENLDLSCFTESNPPAEYFWTINGKFQQSGQKLFIPQITRNHSGLYACSVHNSATGKEISKSMTVKVSGPCHGDLTESQS
percentage of EdU-negative (MCF7; [1]): 25.2 ± 0.61%
percentage of EdU-negative (MCF7; [2]): 26.3 ± 0.9%
percentage of EdU-negative (hTERT-HMEC; [1]): 4.85 ± 0.41%
percentage of EdU-negative (hTERT-HMEC; [2]): 4.97 ± 0.19%

MLPLWTLSLLLGAVAGKEVCYERLGCFSDDSPWSGITERPLHILPWSPKDVNTRFLLYTNENPNNFQEVAADSSSISGSNFKTNRKTRFIIHGFIDKGEENWLANVCKNLFKVESVNCICVDWKGGSRTGYTQASQNIRIVGAEVAYFVEFLQSAFGYSPSNVHVIGHSLGAHAAGEAGRRTNGTIGRITGLDPAEPCFQGTPELVRLDPSDAKFVDVIHTDGAPIVPNLGFGMSQVVGHLDFFPNGGVEMPGCKKNILSQIVDIDGIWEGTRDFAACNHLRSYKYYTDSIVNPDGFAGFPCASYNVFTANKCFPCPSGGCPQMGHYADRYPGKTNDVGQKFYLDTGDASNFARWRYKVSVTLSGKKVTGHILVSLFGNKGNSKQYEIFKGTLKPDSTHSNEFDSDVDVGDLQMVKFIWYNNVINPTLPRVGASKIIVETNVGKQFNFCSPETVREEVLLTLTPC
percentage of EdU-negative (MCF7; [3]): 22.6 ± 0.74%
percentage of EdU-negative (MCF7; [4]): 24.8 ± 1.1%
percentage of EdU-negative (hTERT-HMEC; [3]): 4.88 ± 0.32%
percentage of EdU-negative (hTERT-HMEC; [4]): 5.95 ± 0.29%

MGTLPWLLAFFILGLQAWDTPTIVSRKEWGARPLACRALLTLPVAYIITDQLPGMQCQQQSVCSQMLRGLQSHSVYTIGWCDVAYNFLVGDDGRVYEGVGWNIQGLHTQGYNNISLGIAFFGNKIGSSPSPAALSAAEGLISYAIQKGHLSPRYIQPLLLKEETCLDPQHPVMPRKVCPNIIKRSAWEARETHCPKMNLPAKYVIIIHTAGTSCTVSTDCQTVVRNIQSFHMDTRNFCDIGYHFLVGQDGGVYEGVGWHIQGSHTYGFNDIALGIAFIGYFVEKPPNAAALEAAQDLIQCAVVEGYLTPNYLLMGHSDVVNILSPGQALYNIISTWPHFKH [Q96LB9]
percentage of EdU-negative (MCF7; [5]): 25.5 ± 4.8%
percentage of EdU-negative (MCF7; [6]): 26.6 ± 2.1%
percentage of EdU-negative (hTERT-HMEC; [5]): 5.52 ± 0.69%
percentage of EdU-negative (hTERT-HMEC; [6]): 5.51 ± 0.12%

MIHGRSVLHIVASLIILHLSGATKKGTEKQTTSETQKSVQCGTWTKHAEGGIFTSPNYPSKYPPDRECIYIIEAAPRQCIELYFDEKYSIEPSWECKFDHIEVRDGPFGFSPIIGRFCGQQNPPVIKSSGRFLWIKFFADGELESMGFSARYNFTPDPDFKDLGALKPLPACEFEMGGSEGIVESIQIMKEGKATASEAVDCKWYIRAPPRSKIYLRFLDYEMQNSNECKRNFVAVYDGSSSVEDLKAKFCSTVANDVMLRTGLGVIRMWADEGSRNSRFQMLFTSFQEPPCEGNTFFCHSNMCINNTLVCNGLQNCVYPWDENHCKEKRKTSLLDQLTNTSGTVIGVTSCIVIILIIISVIVQIKQPRKKYVQRKSDFDQTVFQEVFEPPHYELCTLRGTGATADFADVADDFENYHKLRRSSSKCIHDHHCGSQLSSTKGSRSNLSTRDASILTEMPTQPGKPLIPPMNRRNILVMKHSYSQDAADACDIDEIEEVPTTSHRLSRHDKAVQRFCLIGSLSKHESEYNTTRV [Q8TDF5]
percentage of EdU-negative (MCF7; [7]): 23.53 ± 0.037%
percentage of EdU-negative (MCF7; [8]): 26.76 ± 0.058%
percentage of EdU-negative (hTERT-HMEC; [7]): 4.64 ± 0.48%
percentage of EdU-negative (hTERT-HMEC; [8]): 7.76 ± 0.38%

MDLSAAAALCLWLLSACRPRDGLEAAAVLRAAGAGPVRSPGGGGGGGGGGRTLAQAAGAAAVPAAAVPRARAARRAAGSGFRNGSVVPHHFMMSLYRSLAGRAPAGAAAVSASGHGRADTITGFTDQATQDESAAETGQSFLFDVSSLNDADEVVGAELRVLRRGSPESGPGSWTSPPLLLLSTCPGAARAPRLLYSRAAEPLVGQRWEAFDVADAMRRHRREPRPPRAFCLLLRAVAGPVPSPLALRRLGFGWPGGGGSAAEERAVLVVSSRTQRKESLFREIRAQARALGAALASEPLPDPGTGTASPRAVIGGRRRRRTALAGTRTAQGSGGGAGRGHGRRGRSRCSRKPLHVDFKELGWDDWIIAPLDYEAYHCEGLCDFPLRSHLEPTNHAIIQTLLNSMAPDAAPASCCVPARLSPISILYIDAANNVVYKQYEDMVVEACGCR [Q7Z4P5]
percentage of EdU-negative (MCF7; [9]): 26.75 ± 0.031%
percentage of EdU-negative (MCF7; [10]): 28.9 ± 2.2%
percentage of EdU-negative (hTERT-HMEC; [9]): 5.309 ± 0.0057%
percentage of EdU-negative (hTERT-HMEC; [10]): 5.34 ± 1.2%

MARSNLPLALGLALVAFCLLALPRDARARPQERMVGELRDLSPDDPQVQKAAQAAVASYNMGSNSIYYFRDTHIIKAQSQLVAGIKYFLTMEMGSTDCRKTRVTGDHVDLTTCPLAAGAQQEKLRCDFEVLVVPWQNSSQLLKHNCVQM
percentage of EdU-negative (MCF7; [3]): 26.7 ± 0.57%
percentage of EdU-negative (MCF7; [4]): 25.4 ± 1.2%
percentage of EdU-negative (hTERT-HMEC; [3]): 5.74 ± 0.7%
percentage of EdU-negative (hTERT-HMEC; [4]): 6.46 ± 0.57%

MKFFLLLFTIGFCWAQYSPNTQQGRTSIVHLFEWRWVDIALECERYLAPKGFGGVQVSPPNENVAIYNPFRPWWERYQPVSYKLCTRSGNEDEFRNMVTRCNNVGVRIYVDAVINHMCGNAVSAGTSSTCGSYFNPGSRDFPAVPYSGWDFNDGKCKTGSGDIENYNDATQVRDCRLTGLLDLALEKDYVRSKIAEYMNHLIDIGVAGFRLDASKHMWPGDIKAILDKLHNLNSNWFPAGSKPFIYQEVIDLGGEPIKSSDYFGNGRVTEFKYGAKLGTVIRKWNGEKMSYLKNWGEGWGFVPSDRALVFVDNHDNQRGHGAGGASILTFWDARLYKMAVGFMLAHPYGFTRVMSSYRWPRQFQNGNDVNDWVGPPNNNGVIKEVTINPDTTCGNDWVCEHRWRQIRNMVIFRNVVDGQPFTNWYDNGSNQVAFGRGNRGFIVFNNDDWSFSLTLQTGLPAGTYCDVISGDKINGNCTGIKIYVSDDGKAHFSISNSAEDPFIAIHAESKL
percentage of EdU-negative (MCF7; [11]): 25.6 ± 0.39%
percentage of EdU-negative (MCF7; [12]): 26.4 ± 0.48%
percentage of EdU-negative (hTERT-HMEC; [11]): 5.1 ± 0.51%
percentage of EdU-negative (hTERT-HMEC; [12]): 11.4 ± 1.2%

MKATIILLLLAQVSWAGPFQQRGLFDFMLEDEASGIGPEVPDDRDFEPSLGPVCPFRCQCHLRVVQCSDLGLDKVPKDLPPDTTLLDLQNNKITEIKDGDFKNLKNLHALILVNNKISKVSPGAFTPLVKLERLYLSKNQLKELPEKMPKTLQELRAHENEITKVRKVTFNGLNQMIVIELGTNPLKSSGIENGAFQGMKKLSYIRIADTNITSIPQGLPPSLTELHLDGNKISRVDAASLKGLNNLAKLGLSFNSISAVDNGSLANTPHLRELHLDNNKLTRVPGGLAEHKYIQVVYLHNNNISVVGSSDFCPPGHNTKKASYSGVSLFSNPVQYWEIQPSTFRCVYVRSAIQLGNYK
percentage of EdU-negative (MCF7; [13]): 24 ± 3.8%
percentage of EdU-negative (MCF7; [14]): 26.5 ± 1.1%
percentage of EdU-negative (hTERT-HMEC; [13]): 5.5 ± 0.71%
percentage of EdU-negative (hTERT-HMEC; [14]): 6.07 ± 0.48%

MALPSRILLWKLVLLQSSAVLLHSGSSVPAAAGSSVVSESAVSWEAGARAVLRCQSPRMVWTQDRLHDRQRVLHWDLRGPGGGPARRLLDLYSAGEQRVYEARDRGRLELSASAFDDGNFSLLIRAVEETDAGLYTCNLHHHYCHLYESLAVRLEVTDGPPATPAYWDGEKEVLAVARGAPALLTCVNRGHVWTDRHVEEAQQVVHWDRQPPGVPHDRADRLLDLYASGERRAYGPLFLRDRVAVGADAFERGDFSLRIEPLEVADEGTYSCHLHHHYCGLHERRVFHLTVAEPHAEPPPRGSPGNGSSHSGAPGPDPTLARGHNVINVIVPESRAHFFQQLGYVLATLLLFILLLVTVLLAARRRRGGYEYSDQKSGKSKGKDVNLAEFAVAAGDQMLYRSEDIQLDYKNNILKERAELAHSPLPAKYIDLDKGFRKENCK [Q9BRK3]
percentage of EdU-negative (MCF7; [15]): 23.2 ± 2.3%
percentage of EdU-negative (MCF7; [16]): 25 ± 0.57%
percentage of EdU-negative (hTERT-HMEC; [15]): 4.84 ± 0.53%
percentage of EdU-negative (hTERT-HMEC; [16]): 5.72 ± 0.27%

MDRAARCSGASSLPLLLALALGLVILHCVVADGNSTRSPETNGLLCGDPEENCAATTTQSKRKGHFSRCPKQYKHYCIKGRCRFVVAEQTPSCVCDEGYIGARCERVDLFYLRGDRGQILVICLIAVMVVFIILVIGVCTCCHPLRKRRKRKKKEEEMETLGKDITPINEDIEETNIA
percentage of EdU-negative (MCF7; [3]): 24.5 ± 1.2%
percentage of EdU-negative (MCF7; [4]): 23.3 ± 0.42%
percentage of EdU-negative (hTERT-HMEC; [3]): 5.5 ± 0.31%
percentage of EdU-negative (hTERT-HMEC; [4]): 5.88 ± 0.75%

MASPGCLWLLAVALLPWTCASRALQHLDPPAPLPLVIWHGMGDSCCNPLSMGAIKKMVEKKIPGIYVLSLEIGKTLMEDVENSFFLNVNSQVTTVCQALAKDPKLQQGYNAMGFSQGGQFLRAVAQRCPSPPMINLISVGGQHQGVFGLPRCPGESSHICDFIRKTLNAGAYSKVVQERLVQAEYWHDPIKEDVYRNHSIFLADINQERGINESYKKNLMALKKFVMVKFLNDSIVDPVDSEWFGFYRSGQAKETIPLQETSLYTQDRLGLKEMDNAGQLVFLATEGDHLQLSEEWFYAHIIPFLG
percentage of EdU-negative (MCF7; [17]): 25.6 ± 1.6%
percentage of EdU-negative (MCF7; protein concentration 0.225 µM): 26.4 ± 0.39%
percentage of EdU-negative (hTERT-HMEC; [17]): 4.49 ± 0.2%
percentage of EdU-negative (hTERT-HMEC; protein concentration 0.225 µM): 9.52 ± 0.25%
